Measurements: patent US20240261333A1, “NOVEL TARGETS FOR ENHANCING ANTI-TUMOR IMMUNITY” (THE BROAD INSTITUTE, INC., priority 2021, published 2024)

Experiments:
RPLPO (human) = RPLPO (human) (UniProt P05388); assay: co-IP/MS, IgG control IP of C-FLAG B3GNT2 cell lysate
RPL30 (human) = RPL30 (human) (UniProt P62888); assay: as above
RPS5 (human) = RPS5 (human) (UniProt P46782); assay: as above
CASP14 (human) = CASP14 (human) (UniProt P31944); assay: as above
PRDX1 (human) = PRDX1 (human) (UniProt Q06830); assay: as above
Sequence of PRDX1 (human) (Q06830 2-199 limits assumed): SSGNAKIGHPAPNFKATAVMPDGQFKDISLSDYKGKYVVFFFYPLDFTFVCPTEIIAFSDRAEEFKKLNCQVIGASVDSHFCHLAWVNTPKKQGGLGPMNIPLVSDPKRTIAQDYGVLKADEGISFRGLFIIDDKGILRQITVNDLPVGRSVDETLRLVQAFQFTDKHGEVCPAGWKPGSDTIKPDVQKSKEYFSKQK

IPO4 (human) = IPO4 (human) (UniProt Q8TEX9); assay: as above
HSD17B12 (human) = HSD17B12 (human) (UniProt Q53GQ0); assay: as above
RPS12 (human) = RPS12 (human) (UniProt P25398); assay: as above
LRP1 (human) = LRP1 (human) (UniProt Q07954); assay: as above
CAPZA1 (human) = CAPZA1 (human) (UniProt P52907); assay: as above
RCN2 (human) = RCN2 (human) (UniProt Q14257); assay: as above
SLC25A4 (human) = SLC25A4 (human) (UniProt P12235); assay: as above
Sequence of SLC25A4 (human) (P12235 2-298 limits assumed): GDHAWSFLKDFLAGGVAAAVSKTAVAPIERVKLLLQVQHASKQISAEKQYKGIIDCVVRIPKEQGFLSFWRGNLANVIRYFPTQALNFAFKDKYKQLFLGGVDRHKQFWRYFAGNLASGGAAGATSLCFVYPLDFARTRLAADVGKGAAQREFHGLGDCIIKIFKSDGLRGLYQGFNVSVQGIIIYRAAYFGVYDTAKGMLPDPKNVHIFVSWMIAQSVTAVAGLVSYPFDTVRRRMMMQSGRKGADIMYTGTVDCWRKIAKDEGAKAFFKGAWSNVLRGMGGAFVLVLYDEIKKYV

RPL14 (human) = RPL14 (human) (UniProt P50914); assay: as above
PRDX2 (human) = PRDX2 (human) (UniProt P32119); assay: as above
RPS3A (human) = RPS3A (human) (UniProt P61247); assay: as above
TGM3 (human) = TGM3 (human) (UniProt Q08188); assay: as above
DNAJA1 (human) = DNAJA1 (human) (UniProt P31689); assay: as above
GCN1 (human) = GCN1 (human) (UniProt Q92616); assay: as above
Sequence of GCN1 (human) (Q92616 2-2671 limits assumed): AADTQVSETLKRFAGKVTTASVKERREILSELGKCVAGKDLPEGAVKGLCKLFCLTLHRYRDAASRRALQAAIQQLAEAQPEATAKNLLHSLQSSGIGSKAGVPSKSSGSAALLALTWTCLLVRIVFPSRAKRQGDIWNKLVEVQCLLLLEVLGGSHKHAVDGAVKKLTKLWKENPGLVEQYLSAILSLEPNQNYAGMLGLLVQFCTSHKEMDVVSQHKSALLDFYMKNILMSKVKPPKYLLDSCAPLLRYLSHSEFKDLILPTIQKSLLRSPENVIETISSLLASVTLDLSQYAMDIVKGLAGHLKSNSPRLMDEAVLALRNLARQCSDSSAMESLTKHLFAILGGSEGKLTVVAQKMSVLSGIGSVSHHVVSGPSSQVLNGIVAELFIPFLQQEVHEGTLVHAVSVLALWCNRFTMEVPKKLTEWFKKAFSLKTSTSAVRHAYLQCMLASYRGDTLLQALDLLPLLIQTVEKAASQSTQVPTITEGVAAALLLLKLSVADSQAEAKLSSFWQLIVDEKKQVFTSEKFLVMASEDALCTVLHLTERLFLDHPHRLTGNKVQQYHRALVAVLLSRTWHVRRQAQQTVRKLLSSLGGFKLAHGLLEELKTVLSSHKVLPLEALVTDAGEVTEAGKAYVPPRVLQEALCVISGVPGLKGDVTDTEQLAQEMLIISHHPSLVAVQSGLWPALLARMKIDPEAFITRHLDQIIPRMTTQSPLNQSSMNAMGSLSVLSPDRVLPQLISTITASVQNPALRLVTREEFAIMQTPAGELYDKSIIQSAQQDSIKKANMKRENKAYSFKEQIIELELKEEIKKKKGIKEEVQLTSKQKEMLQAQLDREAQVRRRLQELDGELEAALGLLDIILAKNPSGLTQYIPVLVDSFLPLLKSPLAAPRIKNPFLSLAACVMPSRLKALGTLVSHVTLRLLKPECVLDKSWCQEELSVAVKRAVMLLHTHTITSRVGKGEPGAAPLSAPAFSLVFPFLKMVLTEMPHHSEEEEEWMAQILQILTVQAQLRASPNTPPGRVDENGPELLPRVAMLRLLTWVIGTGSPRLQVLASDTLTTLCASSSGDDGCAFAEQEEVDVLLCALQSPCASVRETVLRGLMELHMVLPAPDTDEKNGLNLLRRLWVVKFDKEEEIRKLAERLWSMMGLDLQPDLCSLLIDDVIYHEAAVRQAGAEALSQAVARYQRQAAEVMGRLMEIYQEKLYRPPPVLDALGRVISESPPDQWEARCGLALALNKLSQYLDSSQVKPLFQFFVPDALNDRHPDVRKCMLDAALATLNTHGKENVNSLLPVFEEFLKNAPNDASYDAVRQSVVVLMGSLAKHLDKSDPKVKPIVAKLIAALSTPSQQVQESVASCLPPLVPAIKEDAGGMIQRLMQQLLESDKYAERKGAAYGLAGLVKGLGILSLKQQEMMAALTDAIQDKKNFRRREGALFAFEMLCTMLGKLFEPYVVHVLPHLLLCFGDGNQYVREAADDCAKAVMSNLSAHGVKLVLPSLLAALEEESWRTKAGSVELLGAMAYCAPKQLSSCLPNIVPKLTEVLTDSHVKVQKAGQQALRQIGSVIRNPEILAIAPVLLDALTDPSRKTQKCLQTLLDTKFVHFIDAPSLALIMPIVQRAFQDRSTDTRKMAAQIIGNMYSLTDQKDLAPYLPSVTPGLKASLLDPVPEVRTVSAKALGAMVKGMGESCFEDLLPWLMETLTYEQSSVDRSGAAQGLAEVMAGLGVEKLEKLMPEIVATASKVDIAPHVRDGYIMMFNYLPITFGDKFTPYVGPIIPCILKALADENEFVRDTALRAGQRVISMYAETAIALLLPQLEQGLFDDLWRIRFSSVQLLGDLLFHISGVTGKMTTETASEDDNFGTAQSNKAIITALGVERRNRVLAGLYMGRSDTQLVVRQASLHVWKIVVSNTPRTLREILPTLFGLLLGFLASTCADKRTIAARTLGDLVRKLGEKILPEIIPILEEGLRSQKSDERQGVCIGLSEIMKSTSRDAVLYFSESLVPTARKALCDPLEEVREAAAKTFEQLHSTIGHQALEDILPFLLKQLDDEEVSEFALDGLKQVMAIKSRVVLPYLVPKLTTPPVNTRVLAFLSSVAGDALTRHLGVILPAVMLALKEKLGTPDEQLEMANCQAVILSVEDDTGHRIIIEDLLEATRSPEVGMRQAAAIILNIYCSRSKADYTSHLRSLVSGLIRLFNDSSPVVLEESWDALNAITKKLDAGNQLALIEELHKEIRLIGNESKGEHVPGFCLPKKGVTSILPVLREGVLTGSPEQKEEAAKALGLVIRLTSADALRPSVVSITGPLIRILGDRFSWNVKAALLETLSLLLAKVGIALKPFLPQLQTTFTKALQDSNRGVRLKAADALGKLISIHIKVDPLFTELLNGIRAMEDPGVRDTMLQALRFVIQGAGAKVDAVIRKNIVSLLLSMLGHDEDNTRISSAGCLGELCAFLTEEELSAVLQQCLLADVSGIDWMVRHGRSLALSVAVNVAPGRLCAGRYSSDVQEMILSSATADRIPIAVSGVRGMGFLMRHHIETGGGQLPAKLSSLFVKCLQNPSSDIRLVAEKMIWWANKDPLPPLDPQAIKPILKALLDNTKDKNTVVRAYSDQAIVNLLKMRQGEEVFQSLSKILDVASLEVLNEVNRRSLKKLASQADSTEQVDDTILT

RPL23A (human) = RPL23A (human) (UniProt P62750); assay: as above
PDIA6 (human) = PDIA6 (human) (UniProt Q15084); assay: as above
RPS7 (human) = RPS7 (human) (UniProt P62081); assay: as above
ERLIN1 (human) = ERLIN1 (human) (UniProt O75477); assay: as above
Sequence of ERLIN1 (human) (O75477 whole entry): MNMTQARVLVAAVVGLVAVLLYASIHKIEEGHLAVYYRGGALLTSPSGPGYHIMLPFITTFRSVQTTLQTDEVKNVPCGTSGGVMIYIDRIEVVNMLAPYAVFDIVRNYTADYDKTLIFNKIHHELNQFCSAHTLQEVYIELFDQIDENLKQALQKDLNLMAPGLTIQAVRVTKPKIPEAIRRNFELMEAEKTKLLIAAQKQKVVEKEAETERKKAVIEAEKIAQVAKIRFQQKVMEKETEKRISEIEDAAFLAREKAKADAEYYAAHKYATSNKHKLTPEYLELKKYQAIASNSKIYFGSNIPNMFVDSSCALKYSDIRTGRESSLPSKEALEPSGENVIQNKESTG

UQCRC2 (human) = UQCRC2 (human) (UniProt P22695); assay: as above
RPS9 (human) = RPS9 (human) (UniProt P46781); assay: as above
ATP1A1 (human) = ATP1A1 (human) (UniProt P05023); assay: as above
FKBP10 (human) = FKBP10 (human) (UniProt Q96AY3); assay: as above
Sequence of FKBP10 (human) (Q96AY3 27-582 limits assumed): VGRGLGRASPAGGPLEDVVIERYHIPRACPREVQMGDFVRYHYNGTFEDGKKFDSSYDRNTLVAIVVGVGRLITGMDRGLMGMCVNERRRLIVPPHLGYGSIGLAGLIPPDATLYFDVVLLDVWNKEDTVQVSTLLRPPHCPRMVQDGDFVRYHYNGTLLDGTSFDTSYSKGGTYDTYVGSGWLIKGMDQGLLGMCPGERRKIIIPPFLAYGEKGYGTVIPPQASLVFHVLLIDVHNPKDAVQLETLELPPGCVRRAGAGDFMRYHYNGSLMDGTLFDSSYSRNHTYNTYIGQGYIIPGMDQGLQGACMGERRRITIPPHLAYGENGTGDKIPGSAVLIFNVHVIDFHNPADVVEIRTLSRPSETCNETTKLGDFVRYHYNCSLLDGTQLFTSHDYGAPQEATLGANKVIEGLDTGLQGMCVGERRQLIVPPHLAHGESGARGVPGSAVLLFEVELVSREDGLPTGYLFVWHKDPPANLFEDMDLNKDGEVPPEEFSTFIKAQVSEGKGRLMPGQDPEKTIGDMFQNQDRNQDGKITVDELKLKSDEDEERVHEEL

SQSTM1 (human) = SQSTM1 (human) (UniProt Q13501); assay: as above
CANX (human) = CANX (human) (UniProt P27824); assay: as above
RPL13A (human) = RPL13A (human) (UniProt P40429); assay: as above
FAM3C (human) = FAM3C (human) (UniProt Q92520); assay: as above
Sequence of FAM3C (human) (Q92520 25-227 limits assumed): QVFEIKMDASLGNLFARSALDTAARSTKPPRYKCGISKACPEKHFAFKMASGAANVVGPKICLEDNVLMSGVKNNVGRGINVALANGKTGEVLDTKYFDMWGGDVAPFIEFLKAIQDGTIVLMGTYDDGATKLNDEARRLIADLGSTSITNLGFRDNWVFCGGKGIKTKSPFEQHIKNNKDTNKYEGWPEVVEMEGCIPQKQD

RPL24 (human) = RPL24 (human) (UniProt P83731); assay: as above
PCBP1 (human) = PCBP1 (human) (UniProt Q15365); assay: as above
PIP (human) = PIP (human) (UniProt P12273); assay: as above
Sequence of PIP (human) (P12273 29-146 limits assumed): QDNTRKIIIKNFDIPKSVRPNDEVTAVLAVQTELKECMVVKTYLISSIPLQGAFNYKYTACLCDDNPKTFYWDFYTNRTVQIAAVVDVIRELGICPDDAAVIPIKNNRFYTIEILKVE

ERLIN2 (human) = ERLIN2 (human) (UniProt O94905); assay: as above
Sequence of ERLIN2 (human) (O94905 whole entry): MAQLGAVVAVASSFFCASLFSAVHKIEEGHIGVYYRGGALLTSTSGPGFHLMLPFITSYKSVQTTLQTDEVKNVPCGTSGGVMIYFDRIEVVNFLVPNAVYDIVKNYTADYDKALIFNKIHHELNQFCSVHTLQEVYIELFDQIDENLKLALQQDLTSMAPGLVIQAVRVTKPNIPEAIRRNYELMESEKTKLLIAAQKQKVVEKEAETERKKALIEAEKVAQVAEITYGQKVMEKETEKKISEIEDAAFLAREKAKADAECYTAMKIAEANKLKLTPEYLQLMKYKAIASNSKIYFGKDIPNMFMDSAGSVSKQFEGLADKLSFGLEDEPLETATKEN

RPL12 (human) = RPL12 (human) (UniProt P30050); assay: as above
CALU (human) = CALU (human) (UniProt O43852); assay: as above
Sequence of CALU (human) (O43852 20-315 limits assumed): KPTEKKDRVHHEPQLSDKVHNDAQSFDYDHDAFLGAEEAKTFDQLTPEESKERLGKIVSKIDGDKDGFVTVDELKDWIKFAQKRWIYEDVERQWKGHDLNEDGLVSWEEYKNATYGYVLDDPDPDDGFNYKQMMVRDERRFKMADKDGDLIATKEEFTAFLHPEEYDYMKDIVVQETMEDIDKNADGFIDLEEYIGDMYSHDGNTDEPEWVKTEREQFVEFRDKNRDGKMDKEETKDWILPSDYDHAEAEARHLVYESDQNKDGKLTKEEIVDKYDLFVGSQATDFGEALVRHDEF

KCTD5 (human) = KCTD5 (human) (UniProt Q9NXV2); assay: control IP with IgG, lysate of cells with C-FLAG B3GNT2, mass spectrometry
GBF1 (human) = GBF1 (human) (UniProt Q92538); assay: as above

Substance: IgG control (Millipore Sigma 12-371) (antibody)
- co-IP mass spectrometry count (RPLPO (human)): 0
- co-IP mass spectrometry count (RPL30 (human)): 4
- co-IP mass spectrometry count (RPS5 (human)): 0
- co-IP mass spectrometry count (CASP14 (human)): 4
- co-IP mass spectrometry count (PRDX1 (human)): 0
- co-IP mass spectrometry count (IPO4 (human)): 0
- co-IP mass spectrometry count (HSD17B12 (human)): 0
- co-IP mass spectrometry count (RPS12 (human)): 4
- co-IP mass spectrometry count (LRP1 (human)): 0
- co-IP mass spectrometry count (CAPZA1 (human)): 0
- co-IP mass spectrometry count (RCN2 (human)): 0
- co-IP mass spectrometry count (SLC25A4 (human)): 0
- co-IP mass spectrometry count (RPL14 (human)): 8
- co-IP mass spectrometry count (PRDX2 (human)): 0
- co-IP mass spectrometry count (RPS3A (human)): 10
- co-IP mass spectrometry count (TGM3 (human)): 3
- co-IP mass spectrometry count (DNAJA1 (human)): 0
- co-IP mass spectrometry count (GCN1 (human)): 0
- co-IP mass spectrometry count (RPL23A (human)): 4
- co-IP mass spectrometry count (PDIA6 (human)): 0
- co-IP mass spectrometry count (RPS7 (human)): 5
- co-IP mass spectrometry count (ERLIN1 (human)): 0
- co-IP mass spectrometry count (UQCRC2 (human)): 0
- co-IP mass spectrometry count (RPS9 (human)): 0
- co-IP mass spectrometry count (ATP1A1 (human)): 0
- co-IP mass spectrometry count (FKBP10 (human)): 0
- co-IP mass spectrometry count (SQSTM1 (human)): 3
- co-IP mass spectrometry count (CANX (human)): 0
- co-IP mass spectrometry count (RPL13A (human)): 0
- co-IP mass spectrometry count (FAM3C (human)): 0
- co-IP mass spectrometry count (RPL24 (human)): 3
- co-IP mass spectrometry count (PCBP1 (human)): 3
- co-IP mass spectrometry count (PIP (human)): 2
- co-IP mass spectrometry count (ERLIN2 (human)): 0
- co-IP mass spectrometry count (RPL12 (human)): 5
- co-IP mass spectrometry count (CALU (human)): 0
- co-IP mass spectrometry count (KCTD5 (human)): 0
- co-IP mass spectrometry count (GBF1 (human)): 0
